Experimental data reported in patent publication US20220227866A1 (VELOSBIO, published 2022).
Residue numbers refer to the chain shown, from its start. “And” between values parts separate entries of the source, which are not always exact repeats. Equal values may be shown once.

B1: Bispecific construct 16 (bispecific antibody, human IgG1, kappa)
heavy 1: not shown
heavy 2: EVQLVESGGGLVQPGGSLRLSCAASGFTFNTYAMNWVRQAPGKGLEWVARIRSKYNNYATYYADSVKGRFTISRDDSKNTLYLQMNSLRAEDTAVYYCVRHGNFGNSYVSYFAYWGQGTTVTVSSGGGGSGGGGSGGGGSGGGGSEIVVTQSPATLSVSPGERATLSCRSSTGAVTAANYANWVQEKPGQAFRGLIGGANKRAPGVPARFSGSLSGDEATLTISSLQSEDFAVYYCALFYSNLWVFGQGTKLEIKEPKSSDKTHTCPPCPAPEAAGAPSVFLFPPKPKDTLMISRTPEVTCVVVDVSHEDPEVKFNWYVDGVEVHNAKTKPREEQYNSTYRVVSVLTVLHQDWLNGKEYKCKVSNKALPAPIEKTISKAKGQPREPQVYTLPPSRDELTKNQVSLSCAVKGFYPSDIAVEWESNGQPENNYKTTPPVLDSDGSFFLVSKLTVDKSRWQQGNVFSCSVMHEALHNHYTQKSLSLSPGK
light: DIVMTQTPLSLPVTPGEPASISCRASKSISKYLAWYQQKPGQAPRLLIYSGSTLQSGIPPRFSGSGYGTDFTLTINNIESEDAAYYFCQQHDESPYTFGEGTKVEIKRTVAAPSVFIFPPSDEQLKSGTASVVCLLNNFYPREAKVQWKVDNALQSGNSQESVTEQDSKDSTYSLSSTLTLSKADYEKHKVYACEVTHQGLSSPVTKSFNRGEC
notes: anti-CD3 scFv Ab10; valency 1/1
B2: Bispecific construct 19 (bispecific antibody, human IgG1, kappa)
heavy 1: not shown
heavy 2: EVQLVESGGGLVQPGGSLRLSCAASGFTFNTYAMNWVRQAPGKGLEWVARIRSKYNNYATYYADSVKGRFTISRDDSKNTLYLQMNSLRAEDTAVYYCVRHGNFGNSYVSYFAYWGQGTTVTVSSGGGGSGGGGSGGGGSGGGGSEIVVTQSPATLSVSPGERATLSCRSSTGAVTAANYANWVQEKPGQAFRGLIGGANKRAPGVPARFSGSLSGDEATLTISSLQSEDFAVYYCALFYSNLWVFGQGTKLEIKGGGGSGGGGSQVQLQESGPGLVKPSQTLSLTCTVSGYAFTAYNIHWVRQAPGQGLEWMGSFDPYDGGSSYNQKFKDRLTISKDTSKNQVVLTMTNMDPVDTATYYCARGWYYFDYWGHGTLVTVSSASTKGPSVFPLAPSSKSTSGGTAALGCLVKDYFPEPVTVSWNSGALTSGVHTFPAVLQSSGLYSLSSVVTVPSSSLGTQTYICNVNHKPSNTKVDKKVEPKSCDKTHTCPPCPAPEAAGAPSVFLFPPKPKDTLMISRTPEVTCVVVDVSHEDPEVKFNWYVDGVEVHNAKTKPREEQYNSTYRVVSVLTVLHQDWLNGKEYKCKVSNKALPAPIEKTISKAKGQPREPQVYTLPPSRDELTKNQVSLSCAVKGFYPSDIAVEWESNGQPENNYKTTPPVLDSDGSFFLVSKLTVDKSRWQQGNVFSCSVMHEALHNHYTQKSLSLSPGK
light: B1 light
notes: CD3 valency 1, ROR1 valency 2
B3: Bispecific construct 17 (bispecific antibody, human IgG1, kappa)
heavy 1: not shown
heavy 2: B1 heavy 2 with G44C, Q248C
light: B1 light
notes: disulfide-stabilized anti-CD3 scFv Ab10; valency 1/1
B4: Bispecific construct 12 (bispecific antibody, human IgG1, kappa)
heavy: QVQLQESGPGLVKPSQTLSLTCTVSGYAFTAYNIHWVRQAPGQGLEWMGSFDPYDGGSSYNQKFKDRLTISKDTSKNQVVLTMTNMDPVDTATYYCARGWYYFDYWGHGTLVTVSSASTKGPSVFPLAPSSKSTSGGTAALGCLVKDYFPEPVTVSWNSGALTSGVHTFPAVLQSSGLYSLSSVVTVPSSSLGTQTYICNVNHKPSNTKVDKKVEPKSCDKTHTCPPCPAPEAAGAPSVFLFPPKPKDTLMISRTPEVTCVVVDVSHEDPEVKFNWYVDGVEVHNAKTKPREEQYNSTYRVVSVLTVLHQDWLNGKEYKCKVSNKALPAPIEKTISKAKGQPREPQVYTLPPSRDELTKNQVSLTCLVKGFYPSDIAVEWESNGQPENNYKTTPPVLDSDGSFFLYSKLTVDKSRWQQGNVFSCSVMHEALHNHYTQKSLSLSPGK
light: DIVMTQTPLSLPVTPGEPASISCRASKSISKYLAWYQQKPGQAPRLLIYSGSTLQSGIPPRFSGSGYGTDFTLTINNIESEDAAYYFCQQHDESPYTFGEGTKVEIKRTVAAPSVFIFPPSDEQLKSGTASVVCLLNNFYPREAKVQWKVDNALQSGNSQESVTEQDSKDSTYSLSSTLTLSKADYEKHKVYACEVTHQGLSSPVTKSFNRGECGGGGSGGGGSEVQLVESGGGLVQPGGSLRLSCAASGFTFNTYAMNWVRQAPGKCLEWVARIRSKYNNYATYYADSVKGRFTISRDDSKNTLYLQMNSLRAEDTAVYYCVRHGNFGNSYVSYFAYWGQGTTVTVSSGGGGSGGGGSGGGGSGGGGSEIVVTQSPATLSVSPGERATLSCRSSTGAVTAANYANWVQEKPGQAFRGLIGGANKRAPGVPARFSGSLSGDEATLTISSLQSEDFAVYYCALFYSNLWVFGCGTKLEIK
notes: disulfide-stabilized anti-CD3 scFv Ab10; ROR1 arm Ab1; valency 2/2
B5: Bispecific construct 18 (bispecific antibody, human IgG1, kappa)
heavy: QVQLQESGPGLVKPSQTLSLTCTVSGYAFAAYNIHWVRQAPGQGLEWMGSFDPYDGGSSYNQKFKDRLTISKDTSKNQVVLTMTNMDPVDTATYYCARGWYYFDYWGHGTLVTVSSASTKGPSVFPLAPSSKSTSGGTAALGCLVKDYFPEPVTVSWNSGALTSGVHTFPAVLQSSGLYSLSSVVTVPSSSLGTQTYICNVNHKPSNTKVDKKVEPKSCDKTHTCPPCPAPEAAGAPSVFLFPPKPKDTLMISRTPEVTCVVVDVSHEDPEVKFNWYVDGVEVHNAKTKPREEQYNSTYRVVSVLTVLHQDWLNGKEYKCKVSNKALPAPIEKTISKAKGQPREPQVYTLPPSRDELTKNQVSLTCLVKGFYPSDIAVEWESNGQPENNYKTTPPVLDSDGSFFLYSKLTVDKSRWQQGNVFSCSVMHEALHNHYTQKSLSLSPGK
light: B4 light with C268G, C472Q
notes: anti-CD3 scFv Ab10; valency 2/2
B6: control 1 (bispecific antibody)
polypeptide, role not told 1: QLVLTQSPSASASLGSSVKLTCTLSSGHKTDTIDWYQQQPGKAPRYLMKLEGSGSYNKGSGVPDRFSGSSSGADWYLTISSLQSEDEADYYCGTDYPGNYLFGGGTQLTVLGGGGSGGGGEVQLVESGGGLVQPGGSLRLSCAASGFTFSTYAMNWVRQAPGKGLEWVGRIRSKYNNYATYYADSVKGRFTISRDDSKNSLYLQMNSLKTEDTAVYYCVRHGNFGNSYVSWFAYWGQGTLVTVSSASTKGEVAACEKEVAALEKEVAALEKEVAALEKGGGDKTHTCPPCPAPEAAGGPSVFLFPPKPKDTLMISRTPEVTCVVVDVSHEDPEVKFNWYVDGVEVHNAKTKPREEQYNSTYRVVSVLTVLHQDWLNGKEYKCKVSNKALPAPIEKTISKAKGQPREPQVYTLPPSREEMTKNQVSLWCLVKGFYPSDIAVEWESNGQPENNYKTTPPVLDSDGSFFLYSKLTVDKSRWQQGNVFSCSVMHEALHNHYTQKSLSLSPGK
polypeptide, role not told 2: QAVVTQEPSLTVSPGGTVTLTCRSSTGAVTTSNYANWVQQKPGQAPRGLIGGTNKRAPWTPARFSGSLLGGKAALTITGAQAEDEADYYCALWYSNLWVFGGGTKLTVLGGGGSGGGGQEQLVESGGGLVQPGGSLRLSCAASGFTFSDYYMSWIRQAPGKGLEWVATIYPSSGKTYYADSAKGRLTISSDNAKDSLYLQMNSLRAEDTAVYYCTRDSYADDAALFDIWGQGTTVTVSSASTKGKVAACKEKVAALKEKVAALKEKVAALKE
polypeptide, role not told 3: not shown
B7: Bispecific construct 20 (bispecific antibody, human IgG1, kappa)
heavy: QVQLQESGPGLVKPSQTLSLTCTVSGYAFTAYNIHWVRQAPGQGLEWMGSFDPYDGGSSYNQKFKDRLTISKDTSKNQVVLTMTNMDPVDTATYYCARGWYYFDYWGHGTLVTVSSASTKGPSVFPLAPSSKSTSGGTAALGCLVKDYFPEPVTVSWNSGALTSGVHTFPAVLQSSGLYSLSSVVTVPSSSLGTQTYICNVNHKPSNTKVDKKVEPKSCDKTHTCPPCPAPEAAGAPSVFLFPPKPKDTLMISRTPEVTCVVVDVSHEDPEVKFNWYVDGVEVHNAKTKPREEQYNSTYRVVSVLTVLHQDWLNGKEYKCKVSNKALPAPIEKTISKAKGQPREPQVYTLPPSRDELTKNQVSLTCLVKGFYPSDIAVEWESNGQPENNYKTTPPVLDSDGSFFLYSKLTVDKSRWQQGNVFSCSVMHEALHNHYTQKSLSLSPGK
light: EVQLVESGGGLVQPGGSLRLSCAASGFTFNTYAMNWVRQAPGKGLEWVARIRSKYNNYATYYADSVKGRFTISRDDSKNTLYLQMNSLRAEDTAVYYCVRHGNFGNSYVSYFAYWGQGTTVTVSSGGGGSGGGGSGGGGSGGGGSEIVVTQSPATLSVSPGERATLSCRSSTGAVTAANYANWVQEKPGQAFRGLIGGANKRAPGVPARFSGSLSGDEATLTISSLQSEDFAVYYCALFYSNLWVFGQGTKLEIKGGGGSGGGGSDIVMTQTPLSLPVTPGEPASISCRASKSISKYLAWYQQKPGQAPRLLIYSGSTLQSGIPPRFSGSGYGTDFTLTINNIESEDAAYYFCQQHDESPYTFGEGTKVEIKRTVAAPSVFIFPPSDEQLKSGTASVVCLLNNFYPREAKVQWKVDNALQSGNSQESVTEQDSKDSTYSLSSTLTLSKADYEKHKVYACEVTHQGLSSPVTKSFNRGEC
notes: valency 2/2

Columns and labels:
[1] = molecular target: T1, human CD3 on Jurkat cells (human, UniProt P09693 23-182; P04234 22-171; P07766 23-207); assay: flow cytometry on Jurkat cells
T1 construct: GenBank NP_000064.1, NP_000723.1, NP_000724.1
Method: To quantitate CD3 binding, 2.5E5 Jurkat cells were used for each condition. A 2× stock of the cells was made by resuspending the cells to 5E6/mL by placing in 50 μL of PBS with 2% FBS. Next, the cells were diluted with an equal volume of 2× stock of the test bispecific binding molecule. The cells and antibody were co-incubated on ice for 20 min. The cells were then washed 3 times with 300 μL of FACS buffer and were resuspended in 100 μL of goat anti-human Fc-PE conjugate antibody (Invitrogen cat. #12499882) at 1:500 dilution and incubated on ice with reduced light for 20 min. The cells were then washed 3 times with 300 μL of FACS buffer and fixed with 2% paraformaldehyde for 10 min at 25° C. The cells were washed 2 times with 300 μL of FACS buffer and analyzed on a Miltenyi MACSQuant Analyzer.

[2] = molecular target: T2, soluble biotinylated human ROR1 extracellular domain (human, UniProt Q01973 30-406, biotinylated with EZ-Link Sulfo-NHS-LC-Biotin at a 1:5 molar ratio); assay: ELISA, captured construct, biotinylated ROR1 titrated
T2 construct: Acro Biosystems cat; whole entry named; also called b-ROR1; soluble b-ROR1
Method: To measure the binding of bispecific constructs to soluble ROR1, a 96-well Costar-3366 plate was coated with 50 μL/well of 2 μg/mL goat anti-human kappa (Southern Biotech cat. #2060-01) in PBS overnight at 4° C. The plate was rinsed once with PBS-T, blocked with 100 μL/well 5% M-P for 1 h at 25° C., rinsed once with PBS-T, and 2 μg/mL of the bispecific binding molecule was added and incubated for 1 h at 25° C. The plate was washed three times with PBS-T. Biotinylated ROR1 was diluted serially, 3-fold in 5% M-P and was incubated for 1 h at 25° C. (50 μL/well). The plate was washed three times with PBS-T. To detect the binding of b-ROR1, 50 μL/well Neutravidin-HRP (Pierce cat. #31030) diluted 1:5000 in 1% BSA-PBS was added for 1 h at 25° C. The plate was washed three times with PBS-T, then developed with 50 μL/well 1-Step Ultra TMB-ELISA (Thermo Scientific cat. #34028). The reaction was terminated by the addition of 2 N H₂SO₄ and the A450 was determined using a Spectramax plate reader.
The stronger binding observed with bivalent constructs versus monovalent constructs in cell assays and ELISAs in which the antigen is immobilized is consistent with an avidity effect. To determine if this was the case, binding to soluble monomeric ROR1 was assessed by immobilizing the bispecific binding molecules on a microtiter plate coated with goat anti-human kappa antibody and titrating biotinylated RORL. All bispecific binding molecules were active in this format (FIG. 7), and in most cases, there were no notable differences between monovalent and bivalent constructs.

[3] = molecular target: T3, recombinant human ROR1 extracellular domain (human, UniProt Q01973 30-406); assay: ELISA, immobilised ROR1 ECD, construct titrated
T3 construct: Bought (Acro Biosystems cat. R01-H522Y); whole entry named; also called ROR1-ECD; immobilized ROR1
Method: A 96-well Costar-3366 plate was coated with 50 μL/well of 2 μg/mL […] (Acro Biosystems cat. #R01-H522Y) in PBS overnight at 4° C. The plate was rinsed once with PBS containing 0.05% Tween 20 (PBS-T) and blocked with 100 μL/well of 5% non-fat milk in PBS (5% M-P) for 1 h at 25° C. Antibody samples were serially diluted 2-fold using 5% M-P and were incubated for 1 h at 25° C. (50 μL/well). The plate was washed three times with PBS-T and 50 μL/well anti-human kappa, HRP conjugate (Southern Biotech cat. #2060-05) diluted 10,000-fold in 5% M-P was added for 1 h at 25° C. The plate was washed three times with PBS-T, developed with 50 μL/well 1-Step Ultra TMB-ELISA (Thermo Scientific cat. #34028). The reaction was terminated by the addition of 2 N H₂SO₄ and the A450 was determined using a Spectramax plate reader.
Next, the binding of bispecific binding molecules to ROR was characterized by ELISA using recombinantly-expressed extracellular domain of RORL. ROR was immobilized on a microtiter plate, the bispecific binding molecules were titrated, and binding was quantitated with an anti-human kappa-HRP reagent. Consistent with the cell binding data, all constructs bound ROR1 in a concentration-dependent manner (FIG. 6). Moreover, monovalent ROR1 constructs 13-15 bound less tightly than all but two of the bivalent constructs.

[4] = molecular target: human ROR1 on cells (human, UniProt Q01973 30-937); assay: cell-based or functional assay
human ROR1 on cells, sequence (Q01973 30-937 limits assumed): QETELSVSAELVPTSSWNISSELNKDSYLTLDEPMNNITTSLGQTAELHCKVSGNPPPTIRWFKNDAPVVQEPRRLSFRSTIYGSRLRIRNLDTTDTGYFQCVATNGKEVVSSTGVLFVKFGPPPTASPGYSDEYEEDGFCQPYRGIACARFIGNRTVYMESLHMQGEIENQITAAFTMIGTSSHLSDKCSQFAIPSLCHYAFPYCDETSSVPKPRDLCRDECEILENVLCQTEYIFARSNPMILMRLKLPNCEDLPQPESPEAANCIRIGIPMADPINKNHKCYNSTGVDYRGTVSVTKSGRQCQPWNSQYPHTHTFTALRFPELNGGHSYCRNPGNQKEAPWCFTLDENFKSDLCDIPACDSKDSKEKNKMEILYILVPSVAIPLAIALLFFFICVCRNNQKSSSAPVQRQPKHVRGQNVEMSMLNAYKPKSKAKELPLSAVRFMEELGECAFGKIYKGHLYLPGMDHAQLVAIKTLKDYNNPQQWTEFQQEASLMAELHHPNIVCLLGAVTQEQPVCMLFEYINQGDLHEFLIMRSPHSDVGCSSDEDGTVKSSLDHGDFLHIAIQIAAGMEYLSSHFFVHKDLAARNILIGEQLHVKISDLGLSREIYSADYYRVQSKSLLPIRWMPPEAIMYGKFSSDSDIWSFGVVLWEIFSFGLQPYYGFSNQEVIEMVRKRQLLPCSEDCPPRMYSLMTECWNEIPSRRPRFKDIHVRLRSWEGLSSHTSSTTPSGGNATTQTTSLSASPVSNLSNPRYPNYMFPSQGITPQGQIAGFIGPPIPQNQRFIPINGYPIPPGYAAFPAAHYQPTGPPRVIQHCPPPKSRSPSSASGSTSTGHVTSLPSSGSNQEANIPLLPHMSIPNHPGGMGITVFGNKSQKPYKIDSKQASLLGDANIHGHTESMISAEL

T2 sequence (Q01973 30-406 limits assumed): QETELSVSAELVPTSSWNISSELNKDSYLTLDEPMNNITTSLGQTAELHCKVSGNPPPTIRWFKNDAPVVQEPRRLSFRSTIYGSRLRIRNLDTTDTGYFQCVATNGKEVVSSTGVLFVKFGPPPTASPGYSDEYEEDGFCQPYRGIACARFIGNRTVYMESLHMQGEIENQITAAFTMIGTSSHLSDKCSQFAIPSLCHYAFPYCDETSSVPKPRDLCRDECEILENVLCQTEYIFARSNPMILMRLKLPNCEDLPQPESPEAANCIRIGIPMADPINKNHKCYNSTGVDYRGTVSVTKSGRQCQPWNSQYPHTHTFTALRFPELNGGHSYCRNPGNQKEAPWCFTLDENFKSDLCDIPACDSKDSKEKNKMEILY
T1 sequence (P09693 23-182 limits assumed, chain 1 of 3): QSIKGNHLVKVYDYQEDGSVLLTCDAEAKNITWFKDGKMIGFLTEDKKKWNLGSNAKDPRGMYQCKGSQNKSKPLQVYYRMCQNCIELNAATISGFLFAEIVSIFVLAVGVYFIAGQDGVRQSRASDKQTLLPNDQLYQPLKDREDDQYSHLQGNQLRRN
T1 sequence (P04234 22-171 limits assumed, chain 2 of 3): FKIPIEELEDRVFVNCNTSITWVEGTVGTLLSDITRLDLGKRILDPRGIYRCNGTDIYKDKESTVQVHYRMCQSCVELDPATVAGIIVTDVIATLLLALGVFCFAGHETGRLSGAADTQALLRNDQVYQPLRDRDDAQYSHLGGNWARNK
T1 sequence (P07766 23-207 limits assumed, chain 3 of 3): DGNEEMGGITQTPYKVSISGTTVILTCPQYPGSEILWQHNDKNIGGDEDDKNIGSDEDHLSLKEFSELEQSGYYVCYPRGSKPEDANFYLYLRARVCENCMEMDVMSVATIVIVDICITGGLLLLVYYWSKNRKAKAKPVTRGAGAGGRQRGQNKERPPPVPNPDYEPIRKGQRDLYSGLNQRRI
T3 sequence (Q01973 30-406 limits assumed): as the sequence (Q01973 30-406 limits assumed) above

Binder	binding result [1]	Kd [2] [nM]	Kd [3] [nM]	EC50, LDH release, ROR1-transfected MEC [4]	Max. LDH Release, ROR1-transfected MEC [4] [%]
B1	binds	0.057	–	–	–
B2	–	0.2	–	–	–
B3	binds	0.068	–	–	–
B4	binds	0.086	0.116	–	–
B5	binds	0.048	–	3.5 ng/mL and 17 pM	34
B6	binds	–	–	–	–
B7	–	0.366	–	1.8 ng/mL and 9 pM	37
